Measurements taken from PMC3971405, “Molecular basis for the fold organization and sarcomeric targeting of the muscle atrogin MuRF1” (Open Biology, 2014).

What was measured:
[1] = molecular target: the molecule itself; experiment: SEC-MALS; SEC-MALLS, Superdex 200 10/300, 20 mM Tris pH 8.0, 100 mM NaCl; injected at 0.7 mg/ml
[2] = molecular target: the molecule itself; experiment: SEC-MALS; SEC-MALLS, Superdex 75 10/300 GL, 20 mM Tris pH 8.0, 50 mM NaCl; 1 ml injected at 1.5 mg/ml
[3] = molecular target: the molecule itself; experiment: crystal structure; crystals grown at 20°C in 35% MPD, 0.1 M sodium acetate pH 4.5, 20% glycerol, 20 mM NaF; four chains in the asymmetric unit; 2.1 Å

B1: MuRF1^B2|CC|COS (B2 box, helix H1 and COS-box of MuRF1, residues 114-327, C298S) (domain or fragment)
chain: LQKGSHPMCKEHEDEKINIYCLTCEVPTCSMCKVFGIHKACEVAPLQSVFQGQKTELNNCISMLVAGNDRVQTIITQLEDSRRVTKENSHQVKEELSQKFDTLYAILDEKKSELLQRITQEQEKKLSFIEALIQQYQEQLDKSTKLVETAIQSLDEPGGATFLLTAKQLIKSIVEASKGSQLGKTEQGFENMDFFTLDLEHIADALRAIDFGTD
stoichiometry N [1]: 2

B2: MuRF1^CC (coiled-coil-prone segment of human MuRF1, residues 214-271) (domain or fragment)
chain: GAMDTLYAILDEKKSELLQRITQEQEKKLSFIEALIQQYQEQLDKSTKLVETAIQSLDEPG
notes: MuRF1 (E3 ubiquitin ligase, TRIM family), human, UniProtKB Q969Q1, residues 214-271 (D214 to G271); Cloned into pETM-11 (His6-tag and TEV site N-terminal); also called CC^214-271; MuRF1 CC segment; not shown: His6, N-terminal, cleaved
stoichiometry N [2]: ~2
stoichiometry N [3]: 4
